Experimental data from publication PMC2193072 (The Journal of Experimental Medicine, 1999).
Read-outs that look alike come from different tables or passages of the source. No end group written: not given here.

B1: Human HSP60 (441–460) peptide, biotinylated (peptide)
peptide: GCALLRCIPALDSLTPANED
modifications: cysteine pairing not given here; also: biotinylated, position not given here
B2: Murine CLIP analogue with Y at position 98 (P9), unlabeled (peptide)
peptide: PVSQMRMATPLLYRP
B3: Murine CLIP 98D analogue, biotinylated (peptide)
peptide: PVSQMRMATPLLDRP
modifications: also: biotinylated, position not given here
B4: Murine CLIP analogue with F at position 98 (P9), unlabeled (peptide)
peptide: PVSQMRMATPLLFRP
B5: Murine CLIP analogue with W at position 98 (P9), unlabeled (peptide)
peptide: PVSQMRMATPLLWRP
B6: Murine CLIP analogue with L at position 98 (P9), unlabeled (peptide)
peptide: PVSQMRMATPLLLRP
B7: Murine CLIP analogue with N at position 98 (P9), unlabeled (peptide)
peptide: PVSQMRMATPLLNRP
B8: Murine CLIP analogue with R at position 98 (P9), unlabeled (peptide)
peptide: PVSQMRMATPLLRRP
B9: Murine CLIP analogue with H at position 98 (P9), unlabeled (peptide)
peptide: PVSQMRMATPLLHRP
B10: Murine CLIP analogue with C at position 98 (P9), unlabeled (peptide)
peptide: PVSQMRMATPLLCRP
B11: Murine CLIP analogue with G at position 98 (P9), unlabeled (peptide)
peptide: PVSQMRMATPLLGRP
B12: Murine CLIP analogue with S at position 98 (P9), unlabeled (peptide)
peptide: PVSQMRMATPLLSRP
B13: Murine CLIP analogue with A at position 98 (P9), unlabeled (peptide)
peptide: PVSQMRMATPLLARP
B14: Murine CLIP analogue with P at position 98 (P9), unlabeled (peptide)
peptide: PVSQMRMATPLLPRP
B15: Murine CLIP analogue with I at position 98 (P9), unlabeled (peptide)
peptide: PVSQMRMATPLLIRP
B16: Murine CLIP analogue with T at position 98 (P9), unlabeled (peptide)
peptide: PVSQMRMATPLLTRP
B17: Murine CLIP analogue with Q at position 98 (P9), unlabeled (peptide)
peptide: PVSQMRMATPLLQRP
B18: Murine CLIP analogue with K at position 98 (P9), unlabeled (peptide)
peptide: PVSQMRMATPLLKRP

What was measured:
[1] = target: soluble I-A^g7 (I-Aα–Fos / I-Aβ–Jun heterodimer) (mouse (NOD) | not stated); experiment: peptide dissociation assay
[2] = target: soluble I-A^g7 (I-Aα–Fos / I-Aβ–Jun heterodimer) (mouse (NOD) | not stated); experiment: peptide dissociation assay; remark: listed apart in the source
[3] = target: soluble I-A^g7 (I-Aα–Fos / I-Aβ–Jun heterodimer) (mouse (NOD) | not stated); experiment: antibody-capture peptide binding assay with europium-streptavidin
[4] = target: soluble I-A^g7 (I-Aα–Fos / I-Aβ–Jun heterodimer) (mouse (NOD) | not stated); experiment: as above; remark: listed apart in the source
I-A^g7 [5] = type: binding, NOD mice; details: biotinylated peptide, pH 5.0, 37°C
I-A^g7 [6] = type: binding, NOD mice; details: pH 5, competitor 8 nM–25 μM vs biotinylated transferrin peptide (1 μM)

| Molecule | IC50 [3] [µM] | IC50 [4] [µM] | further results |
| --- | --- | --- | --- |
| Murine serum albumin (560–574) peptide, biotinylated |  |  | dissociation time (t1/2) [1]: > 72 h; dissociation time (t1/2) [2]: > 72 h |
| Murine transferrin (55–68) peptide, biotinylated |  |  | dissociation time (t1/2) [1]: > 72 h; dissociation time (t1/2) [2]: 45 h |
| Murine CLIP analogue with V at position 98 (P9), unlabeled (from UniProt P04441 86-100) (peptide) | 50 |  |  |
| Murine CLIP (86–100) peptide, unlabeled | 50 | > 125 |  |
| EEVDMTPADALDDFD [HSV-2 VP16 (430–444)] |  |  | Binding to I-A^g7 in direct binding assay (in words), pH 5.0 (I-A^g7 [5]): little binding; Binding to I-A^g7 in competition assay (in words) (I-A^g7 [6]): competed for binding of the biotinylated transferrin peptide at high peptide concentrations |
| Murine CLIP (86–100) peptide, biotinylated |  |  | dissociation time (t1/2) [2]: 1 h |
| B1 |  |  | dissociation time (t1/2) [1]: 25 h; dissociation time (t1/2) [2]: 14 h |
| B2 | > 125 | 60 |  |
| B3 |  |  | dissociation time (t1/2) [1]: 70 h; dissociation time (t1/2) [2]: 23 h |
| B4 | 80 | 50 |  |
| B5 | 80 | > 125 |  |
| B6 | 40 | > 125 |  |
| B7 | 80 | 125 |  |
| B8 | > 125 | > 125 |  |
| B9 | 4 | > 125 |  |
| B10 | 40 |  |  |
| B11 | 10 | > 125 |  |
| B12 | 40 |  |  |
| B13 | 2 | 15 |  |
| B14 | > 125 | > 125 |  |
| B15 | > 125 | > 125 |  |
| B16 | > 125 | 40 |  |
| B17 | 25 | > 125 |  |
| B18 | > 125 | > 125 |  |
